Patent US20230002496A1 (STAIDSON BEIJING BIOPHARMACEUTICALS, published 2023)

T1: human GM-CSFRα, full length on cells (human, UniProt P15509 23-400)
T1 sequence: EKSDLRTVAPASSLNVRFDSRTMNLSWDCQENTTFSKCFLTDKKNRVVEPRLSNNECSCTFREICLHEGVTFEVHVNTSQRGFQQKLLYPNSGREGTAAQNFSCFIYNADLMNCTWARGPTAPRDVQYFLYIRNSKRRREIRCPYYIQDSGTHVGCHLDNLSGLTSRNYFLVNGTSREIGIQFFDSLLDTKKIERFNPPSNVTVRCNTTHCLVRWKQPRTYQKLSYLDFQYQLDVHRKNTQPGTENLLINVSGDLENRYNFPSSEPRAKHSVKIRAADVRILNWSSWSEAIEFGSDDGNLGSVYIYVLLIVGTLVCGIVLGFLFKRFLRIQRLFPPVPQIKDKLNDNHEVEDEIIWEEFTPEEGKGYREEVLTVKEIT


These binders were tested against T1, human GM-CSFRα, full length on cells (assay: cell-based or functional assay).

Binder | IC50, TF-1 cell proliferation [µg/mL]
E35-scFv HE31M (scFv, V domains shown) VH: QMQLVQSGAEVKKPGASVKVSCKVSGYTLTMLSIHWVRQAPGKGLEWMGGFDPEDGETIYAQKFQGRVTMTGDTSTDTAYLELSSLRSEDTALYYCATGRYTSLATTYGFDYWGQGTLVTVSS VL: EIVMTQSPATLSLSPGERATLSCRASQSVSSYLAWYQQKPGQAPRLLIYGASSRATGIPDRFSGSGSGTDFTLTISRLEPEDFAVYYCQQYDNWPYTFGQGTKLEIK | 0.13
E35-scFv HE31S (scFv, V domains shown) VH: QMQLVQSGAEVKKPGASVKVSCKVSGYTLTSLSIHWVRQAPGKGLEWMGGFDPEDGETIYAQKFQGRVTMTGDTSTDTAYLELSSLRSEDTALYYCATGRYTSLATTYGFDYWGQGTLVTVSS VL: EIVMTQSPATLSLSPGERATLSCRASQSVSSYLAWYQQKPGQAPRLLIYGASSRATGIPDRFSGSGSGTDFTLTISRLEPEDFAVYYCQQYDNWPYTFGQGTKLEIK | 0.14
E35-scFv HE31P (scFv, V domains shown) VH: QMQLVQSGAEVKKPGASVKVSCKVSGYTLTPLSIHWVRQAPGKGLEWMGGFDPEDGETIYAQKFQGRVTMTGDTSTDTAYLELSSLRSEDTALYYCATGRYTSLATTYGFDYWGQGTLVTVSS VL: EIVMTQSPATLSLSPGERATLSCRASQSVSSYLAWYQQKPGQAPRLLIYGASSRATGIPDRFSGSGSGTDFTLTISRLEPEDFAVYYCQQYDNWPYTFGQGTKLEIK | 0.17
E35-scFv HE31F (scFv, V domains shown) VH: QMQLVQSGAEVKKPGASVKVSCKVSGYTLTFLSIHWVRQAPGKGLEWMGGFDPEDGETIYAQKFQGRVTMTGDTSTDTAYLELSSLRSEDTALYYCATGRYTSLATTYGFDYWGQGTLVTVSS VL: EIVMTQSPATLSLSPGERATLSCRASQSVSSYLAWYQQKPGQAPRLLIYGASSRATGIPDRFSGSGSGTDFTLTISRLEPEDFAVYYCQQYDNWPYTFGQGTKLEIK | 0.18
E35-scFv HE31Y (scFv, V domains shown) VH: QMQLVQSGAEVKKPGASVKVSCKVSGYTLTYLSIHWVRQAPGKGLEWMGGFDPEDGETIYAQKFQGRVTMTGDTSTDTAYLELSSLRSEDTALYYCATGRYTSLATTYGFDYWGQGTLVTVSS VL: EIVMTQSPATLSLSPGERATLSCRASQSVSSYLAWYQQKPGQAPRLLIYGASSRATGIPDRFSGSGSGTDFTLTISRLEPEDFAVYYCQQYDNWPYTFGQGTKLEIK | 0.2
E35-scFv HE31A (scFv, V domains shown) VH: QMQLVQSGAEVKKPGASVKVSCKVSGYTLTALSIHWVRQAPGKGLEWMGGFDPEDGETIYAQKFQGRVTMTGDTSTDTAYLELSSLRSEDTALYYCATGRYTSLATTYGFDYWGQGTLVTVSS VL: EIVMTQSPATLSLSPGERATLSCRASQSVSSYLAWYQQKPGQAPRLLIYGASSRATGIPDRFSGSGSGTDFTLTISRLEPEDFAVYYCQQYDNWPYTFGQGTKLEIK | 0.21
E35-scFv HE31V (scFv, V domains shown) VH: QMQLVQSGAEVKKPGASVKVSCKVSGYTLTVLSIHWVRQAPGKGLEWMGGFDPEDGETIYAQKFQGRVTMTGDTSTDTAYLELSSLRSEDTALYYCATGRYTSLATTYGFDYWGQGTLVTVSS VL: EIVMTQSPATLSLSPGERATLSCRASQSVSSYLAWYQQKPGQAPRLLIYGASSRATGIPDRFSGSGSGTDFTLTISRLEPEDFAVYYCQQYDNWPYTFGQGTKLEIK | 0.22
E35-scFv HE31K (scFv, V domains shown) VH: QMQLVQSGAEVKKPGASVKVSCKVSGYTLTKLSIHWVRQAPGKGLEWMGGFDPEDGETIYAQKFQGRVTMTGDTSTDTAYLELSSLRSEDTALYYCATGRYTSLATTYGFDYWGQGTLVTVSS VL: EIVMTQSPATLSLSPGERATLSCRASQSVSSYLAWYQQKPGQAPRLLIYGASSRATGIPDRFSGSGSGTDFTLTISRLEPEDFAVYYCQQYDNWPYTFGQGTKLEIK | 0.23
E35-scFv HE31W (scFv, V domains shown) VH: QMQLVQSGAEVKKPGASVKVSCKVSGYTLTWLSIHWVRQAPGKGLEWMGGFDPEDGETIYAQKFQGRVTMTGDTSTDTAYLELSSLRSEDTALYYCATGRYTSLATTYGFDYWGQGTLVTVSS VL: EIVMTQSPATLSLSPGERATLSCRASQSVSSYLAWYQQKPGQAPRLLIYGASSRATGIPDRFSGSGSGTDFTLTISRLEPEDFAVYYCQQYDNWPYTFGQGTKLEIK | 0.26
E35-scFv HE31R (scFv, V domains shown) VH: QMQLVQSGAEVKKPGASVKVSCKVSGYTLTRLSIHWVRQAPGKGLEWMGGFDPEDGETIYAQKFQGRVTMTGDTSTDTAYLELSSLRSEDTALYYCATGRYTSLATTYGFDYWGQGTLVTVSS VL: EIVMTQSPATLSLSPGERATLSCRASQSVSSYLAWYQQKPGQAPRLLIYGASSRATGIPDRFSGSGSGTDFTLTISRLEPEDFAVYYCQQYDNWPYTFGQGTKLEIK | 0.31
E35-scFv HE31C (scFv, V domains shown) VH: QMQLVQSGAEVKKPGASVKVSCKVSGYTLTCLSIHWVRQAPGKGLEWMGGFDPEDGETIYAQKFQGRVTMTGDTSTDTAYLELSSLRSEDTALYYCATGRYTSLATTYGFDYWGQGTLVTVSS VL: EIVMTQSPATLSLSPGERATLSCRASQSVSSYLAWYQQKPGQAPRLLIYGASSRATGIPDRFSGSGSGTDFTLTISRLEPEDFAVYYCQQYDNWPYTFGQGTKLEIK | 0.36
E35-scFv HT30P (scFv, V domains shown) VH: QMQLVQSGAEVKKPGASVKVSCKVSGYTLPELSIHWVRQAPGKGLEWMGGFDPEDGETIYAQKFQGRVTMTGDTSTDTAYLELSSLRSEDTALYYCATGRYTSLATTYGFDYWGQGTLVTVSS VL: EIVMTQSPATLSLSPGERATLSCRASQSVSSYLAWYQQKPGQAPRLLIYGASSRATGIPDRFSGSGSGTDFTLTISRLEPEDFAVYYCQQYDNWPYTFGQGTKLEIK | 0.126
E35-scFv HT30D (scFv, V domains shown) VH: QMQLVQSGAEVKKPGASVKVSCKVSGYTLDELSIHWVRQAPGKGLEWMGGFDPEDGETIYAQKFQGRVTMTGDTSTDTAYLELSSLRSEDTALYYCATGRYTSLATTYGFDYWGQGTLVTVSS VL: EIVMTQSPATLSLSPGERATLSCRASQSVSSYLAWYQQKPGQAPRLLIYGASSRATGIPDRFSGSGSGTDFTLTISRLEPEDFAVYYCQQYDNWPYTFGQGTKLEIK | 0.132
E35-scFv HT30E (scFv, V domains shown) VH: QMQLVQSGAEVKKPGASVKVSCKVSGYTLEELSIHWVRQAPGKGLEWMGGFDPEDGETIYAQKFQGRVTMTGDTSTDTAYLELSSLRSEDTALYYCATGRYTSLATTYGFDYWGQGTLVTVSS VL: EIVMTQSPATLSLSPGERATLSCRASQSVSSYLAWYQQKPGQAPRLLIYGASSRATGIPDRFSGSGSGTDFTLTISRLEPEDFAVYYCQQYDNWPYTFGQGTKLEIK | 0.132
E35-scFv HT30Y (scFv, V domains shown) VH: QMQLVQSGAEVKKPGASVKVSCKVSGYTLYELSIHWVRQAPGKGLEWMGGFDPEDGETIYAQKFQGRVTMTGDTSTDTAYLELSSLRSEDTALYYCATGRYTSLATTYGFDYWGQGTLVTVSS VL: EIVMTQSPATLSLSPGERATLSCRASQSVSSYLAWYQQKPGQAPRLLIYGASSRATGIPDRFSGSGSGTDFTLTISRLEPEDFAVYYCQQYDNWPYTFGQGTKLEIK | 0.142
E35-scFv HT30W (scFv, V domains shown) VH: QMQLVQSGAEVKKPGASVKVSCKVSGYTLWELSIHWVRQAPGKGLEWMGGFDPEDGETIYAQKFQGRVTMTGDTSTDTAYLELSSLRSEDTALYYCATGRYTSLATTYGFDYWGQGTLVTVSS VL: EIVMTQSPATLSLSPGERATLSCRASQSVSSYLAWYQQKPGQAPRLLIYGASSRATGIPDRFSGSGSGTDFTLTISRLEPEDFAVYYCQQYDNWPYTFGQGTKLEIK | 0.151
E35-scFv HT30V (scFv, V domains shown) VH: QMQLVQSGAEVKKPGASVKVSCKVSGYTLVELSIHWVRQAPGKGLEWMGGFDPEDGETIYAQKFQGRVTMTGDTSTDTAYLELSSLRSEDTALYYCATGRYTSLATTYGFDYWGQGTLVTVSS VL: EIVMTQSPATLSLSPGERATLSCRASQSVSSYLAWYQQKPGQAPRLLIYGASSRATGIPDRFSGSGSGTDFTLTISRLEPEDFAVYYCQQYDNWPYTFGQGTKLEIK | 0.158
E35-scFv HT30M (scFv, V domains shown) VH: QMQLVQSGAEVKKPGASVKVSCKVSGYTLMELSIHWVRQAPGKGLEWMGGFDPEDGETIYAQKFQGRVTMTGDTSTDTAYLELSSLRSEDTALYYCATGRYTSLATTYGFDYWGQGTLVTVSS VL: EIVMTQSPATLSLSPGERATLSCRASQSVSSYLAWYQQKPGQAPRLLIYGASSRATGIPDRFSGSGSGTDFTLTISRLEPEDFAVYYCQQYDNWPYTFGQGTKLEIK | 0.174
E35-scFv HT30N (scFv, V domains shown) VH: QMQLVQSGAEVKKPGASVKVSCKVSGYTLNELSIHWVRQAPGKGLEWMGGFDPEDGETIYAQKFQGRVTMTGDTSTDTAYLELSSLRSEDTALYYCATGRYTSLATTYGFDYWGQGTLVTVSS VL: EIVMTQSPATLSLSPGERATLSCRASQSVSSYLAWYQQKPGQAPRLLIYGASSRATGIPDRFSGSGSGTDFTLTISRLEPEDFAVYYCQQYDNWPYTFGQGTKLEIK | 0.178
E35-scFv HT30L (scFv, V domains shown) VH: QMQLVQSGAEVKKPGASVKVSCKVSGYTLLELSIHWVRQAPGKGLEWMGGFDPEDGETIYAQKFQGRVTMTGDTSTDTAYLELSSLRSEDTALYYCATGRYTSLATTYGFDYWGQGTLVTVSS VL: EIVMTQSPATLSLSPGERATLSCRASQSVSSYLAWYQQKPGQAPRLLIYGASSRATGIPDRFSGSGSGTDFTLTISRLEPEDFAVYYCQQYDNWPYTFGQGTKLEIK | 0.181
